This data set has as its target Sox2 (Mus musculus, UniProt P48432 1-319). Put plainly: EMSA.

Sox2, sequence (P48432 whole entry): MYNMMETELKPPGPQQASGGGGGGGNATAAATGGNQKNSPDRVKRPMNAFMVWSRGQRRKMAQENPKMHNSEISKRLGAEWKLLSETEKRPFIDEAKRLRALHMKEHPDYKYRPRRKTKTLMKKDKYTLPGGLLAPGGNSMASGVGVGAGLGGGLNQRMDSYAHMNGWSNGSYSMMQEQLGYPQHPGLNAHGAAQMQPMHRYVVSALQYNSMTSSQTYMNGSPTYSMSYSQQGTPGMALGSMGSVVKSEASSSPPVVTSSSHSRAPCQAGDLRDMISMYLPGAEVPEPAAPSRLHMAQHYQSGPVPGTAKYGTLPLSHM

B1: RNA/DNA hybrid (DNA:RNA)
RNA: CCUACUACCUGUGCCUUUAAGUACCUUUUCUGUCUUCUA
DNA: TAGAAGACAGAAAAGGTACTCTAAAGGCACAGGTAGTAGG
For the molecule B1, the binding result was “no binding”.

The values above are taken from publication PMC7360481.
